Test results published in PMC6805484, “The RNA-binding ubiquitin ligase MKRN1 functions in ribosome-associated quality control of poly(A) translation” (Genome Biology, 2019).

Molecular target: T1, recombinant His-PABPC1 (human, UniProt P11940 1-636)
T1 construct: hsPABPC1 expressed from pET53-DEST; also called N-His6-tagged hsPABPC1; source: E. coli Rosetta 2(DE3) pLysS, purified (HisTrap FF, HiTrap Heparin HP, Superdex 200); not shown: His6, N-terminal, kept
Assay: pull-down; biotinylated 42-nt RNA (22 nt of the SRSF4 3′ UTR followed by A20, or by 20 V as control) on NeutrAvidin agarose beads, incubated with 2 μg His-MKRN1-WT and/or His-PABPC1, 1 h at 4 °C, 50 mM Tris-HCl pH 7.4, 500 mM KCl, 12.5 mM MgCl2, 1% Triton X-100; SDS-PAGE with Coomassie staining
Settings: both partners purified

T1 sequence (P11940 whole entry): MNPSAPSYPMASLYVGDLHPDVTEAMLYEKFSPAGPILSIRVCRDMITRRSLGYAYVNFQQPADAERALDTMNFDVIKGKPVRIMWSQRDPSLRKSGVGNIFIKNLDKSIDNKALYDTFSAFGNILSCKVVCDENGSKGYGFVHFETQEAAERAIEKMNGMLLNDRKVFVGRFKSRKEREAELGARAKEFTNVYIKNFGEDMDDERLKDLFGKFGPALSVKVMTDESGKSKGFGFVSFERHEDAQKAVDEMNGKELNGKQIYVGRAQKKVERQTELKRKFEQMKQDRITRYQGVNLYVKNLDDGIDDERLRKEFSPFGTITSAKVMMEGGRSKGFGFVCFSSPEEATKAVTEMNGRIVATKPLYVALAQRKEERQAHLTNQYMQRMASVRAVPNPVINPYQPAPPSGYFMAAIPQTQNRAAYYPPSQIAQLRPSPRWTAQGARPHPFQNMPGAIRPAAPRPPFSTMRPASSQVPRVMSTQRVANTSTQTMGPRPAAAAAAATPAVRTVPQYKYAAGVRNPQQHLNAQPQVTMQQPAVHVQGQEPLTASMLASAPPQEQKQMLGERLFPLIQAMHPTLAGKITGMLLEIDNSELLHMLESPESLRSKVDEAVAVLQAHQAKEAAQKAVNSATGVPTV

binding result: binds
B1: recombinant His-MKRN1^wt (natural protein, human, UniProt Q9UHC7 1-482, looked up)
chain: MAEAATPGTTATTSGAGAAAATAAAASPTPIPTVTAPSLGAGGGGGGSDGSGGGWTKQVTCRYFMHGVCKEGDNCRYSHDLSDSPYSVVCKYFQRGYCIYGDRCRYEHSKPLKQEEATATELTTKSSLAASSSLSSIVGPLVEMNTGEAESRNSNFATVGAGSEDWVNAIEFVPGQPYCGRTAPSCTEAPLQGSVTKEESEKEQTAVETKKQLCPYAAVGECRYGENCVYLHGDSCDMCGLQVLHPMDAAQRSQHIKSCIEAHEKDMELSFAVQRSKDMVCGICMEVVYEKANPSERRFGILSNCNHTYCLKCIRKWRSAKQFESKIIKSCPECRITSNFVIPSEYWVEEKEEKQKLILKYKEAMSNKACRYFDEGRGSCPFGGNCFYKHAYPDGRREEPQRQKVGTSSRYRAQRRNHFWELIEERENSNPFDNDEEEVVTFELGEMLLMLLAAGGDDELTDSEDEWDLFHDELEDFYDLDL
notes: hsMKRN1 expressed from pET53-DEST; also called N-His6-tagged hsMKRN1; source: E. coli Rosetta 2(DE3) pLysS, purified (HisTrap FF, HiTrap Q HP, Superdex 200); not shown: His6, N-terminal, kept
